Reference: patent publication US20150307617A1

Assays:
[1] = biological target: human OX40 expressed on transfected BT-474 cells (fusion with 5' HSV glycoprotein D tag) (human) (UniProt P43489); assay: flow cytometry, ACT35-PE staining of the BT474-human OX40 low clone
[2] = biological target: human OX40 expressed on transfected BT-474 cells (fusion with 5' HSV glycoprotein D tag) (human) (UniProt P43489); assay: flow cytometry, ACT35-PE staining of the BT474-human OX40-high clone

Sequence of human OX40 expressed on transfected BT-474 cells (fusion with 5' HSV glycoprotein D tag) (human) (P43489 29-277): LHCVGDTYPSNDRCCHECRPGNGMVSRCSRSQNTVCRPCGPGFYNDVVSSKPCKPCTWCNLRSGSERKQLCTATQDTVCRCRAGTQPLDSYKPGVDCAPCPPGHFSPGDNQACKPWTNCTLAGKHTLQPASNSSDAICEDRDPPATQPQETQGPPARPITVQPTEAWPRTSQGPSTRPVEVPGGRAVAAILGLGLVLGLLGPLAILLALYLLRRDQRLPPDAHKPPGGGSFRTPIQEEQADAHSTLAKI

- MFI [1]: 994 MFI
- MFI [2]: 5240 MFI
Substance: anti-human OX40 (PE) (clone ACT35) (antibody)
